The results in this text go back to the supplement of paper PMC9170038.

The data set relates to MS2 coat protein. The data set is described as follows: apparent KD of MS2 coat protein; designed switch direction (-1 OFF switch, 1 ON switch): -1; higher = weaker reporter binding. In a few lines: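 Designed RNA switches with common flanks were transcribed on Illumina chips by stalled E. coli RNA polymerase and titrated with SNAP-549-labelled MS2 coat protein, from 0.7 or 1.5 nM doubling to 3 µM, in Tris-HCl pH 7.5 buffer with KCl, MgCl2, BSA, DTT, tRNA and Tween-20. Steps lasted 0.8–1.5 h (lowest) to 10–20 min (highest). Titrations ran without input, with 200 uM small-molecule ligand, or with an oligonucleotide input. Normalised cluster fluorescence was curve-fitted, and apparent KD is the per-design median over clusters.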

[1] abbreviates: input ligand: microRNA oligo, concentration not stated.
[2] abbreviates: Eterna round: R95, input ligand: FMN 200 uM.
Setting [3] is: Eterna round: R95, input ligand: microRNA oligo, concentration not stated.
Setting [4] is: Eterna round: R95, input ligand: none.

Consider “AGUUGGCGAGGAUAUACAUGAGGAUCACCCAUGUGAAAUCGAGAAAAAAUAGGGAAAAGUAGAAGGCGCAGACA [Ruby 63] (Eterna round: R96, puzzle: Exclusion 3)”, for which the “apparent KD of MS2 coat protein” value is, setting by setting: (input ligand: FMN 200 uM) 28.2 nM; under setting [1], 24.3 nM; (input ligand: none) 28.7 nM.

As to “AGUUGGCGAGGAUAUACAUGAGGAUCACCCAUGUGAGGGAUACUAGUGAGGUCGAUUAGUAGAAGGCGCUGACA [Mat X3R4 m9] (Eterna round: R97, puzzle: Exclusion 3)”, the “apparent KD of MS2 coat protein” value runs as follows: (input ligand: FMN 200 uM) 839 nM; (input ligand: none) 56.1 nM.

On to “AGUUGGCGAGGAUAUACAUGAGGAUCACCCAUGUGGUCCUGCGAUGGUGUCGCCCUUUGUAGAAGGCGCGGGUA [salish99_ex3_r4_055] (Eterna round: R97, puzzle: Exclusion 3)”, for which the “apparent KD of MS2 coat protein” value was determined as 40.7 nM (input ligand: FMN 200 uM) and 38.8 nM (input ligand: none).

Regarding “AGUUGGGCAGGAUAUACAUGAGGAUCACCCAUGUGAGAGAUACUAGUGAGGUCGAUUAGUAGAAGGGCCUGACA [Mat X3R4 m2] (Eterna round: R97, puzzle: Exclusion 3)”, the “apparent KD of MS2 coat protein” value is, setting by setting: (input ligand: FMN 200 uM) 251 nM; (input ligand: none) 40.9 nM.

For “AGUUGUUGUUUCCGUUCUUACAUGAGGAUCACCCAUGUUUCUUGUCGUGCUCGCGUUGCUCGUCAGACUACCUGUUG [salish99_TOv1_r3_064] (puzzle: Sensor v3, turn-off variant 1)”, the “apparent KD of MS2 coat protein” value runs as follows: under setting [2], 87.1 nM; under setting [3], 106 nM; under setting [4], 138 nM.

On to “AUAAAGCAGUCAGGAUAUAUGAGAGGUCGUUUCAUAGAAGGGACAGCUCGUGCGUGGCUGACAUGAGGAUCACCCAUGUACGUU [Enrizala] (Eterna round: R96, puzzle: Exclusion NG 1)”, for which the “apparent KD of MS2 coat protein” value (input ligand: FMN 200 uM) was determined as 229 nM, the “apparent KD of MS2 coat protein” value under setting [1] came to 39.1 nM and the “apparent KD of MS2 coat protein” value (input ligand: none) came out at 37.6 nM.

Regarding “AUAAAUAAGGAGGAUAUCGUAUCGGAAACGAUACGAGAAGGUCUAACAUGAGGAUCACCCAUGUUCCUCAAUAA [Mat - Exclusion 6 - Eli Mod - D47] (puzzle: Exclusion 6)”, the “apparent KD of MS2 coat protein” value under setting [3] is 34.5 nM.

Take “AUAAAUCAUGUAGGAUAUGCGUGGCAAAGCUAUGCAGAAGGACAUGAGGAUCACCCAUGUGCUUCCGUCUGCGUACAGACGGUA [Mat - Exclusion NG 1 - Mod of JL - D33] (Eterna round: R96, puzzle: Exclusion NG 1)”: the “apparent KD of MS2 coat protein” value came out at 114 nM (input ligand: FMN 200 uM), 80.7 nM under setting [1] and 107 nM (input ligand: none).

As to “AUAACAAGCUUUUUGUUCGUAGAACAUGAUGCUCGAGUCACAUGAGGAUCACCCAUGUCAACCAGAUAGAUAGUUGA [JR_SV3TOV2_Sub061] (puzzle: Sensor v3, turn-off variant 2)”, the “apparent KD of MS2 coat protein” value stood at 41.2 nM under setting [2], 162 nM under setting [3] and 54.4 nM under setting [4].

“AUAAGCUUUGAGAUCCUUAACAUGAGGAUCACCCAUGUUCGUCUUAUGAUGGUCUGAUCCCUGAGGAUCGGACCGUC [JL-sv1-2.01 Brourd Mod] (puzzle: Sensor v3, turn-off variant 1)”: the “apparent KD of MS2 coat protein” value is, setting by setting: under setting [2], 456 nM; under setting [3], 13.5 nM; under setting [4], 416 nM.

Turning to “AUAAGUAUAUAGGAUAUCUAGCUGGUAACAGCUAGAGAAGGAUGUACAUGAGGAUCACCCAUGUAAAUCUCAAU [Ex6/12-A2] (Eterna round: R97, puzzle: Exclusion 6)”, the “apparent KD of MS2 coat protein” value runs as follows: (input ligand: FMN 200 uM) 15.7 nM; (input ligand: none) 16.1 nM.

Consider “AUAAUACAUGAGGAUCACCCAUGUGAGGAUAUACGACUCCAACCAAACUGCUUGGACCGUAGAAGGCACAAGGG [Exclusion 1 (MOD1 Esqu)] (Eterna round: R97, puzzle: Exclusion 1)”, for which the “apparent KD of MS2 coat protein” value is, setting by setting: (input ligand: FMN 200 uM) 22.7 nM; (input ligand: none) 589 nM.

Turning to “AUAAUGUGAGGAUAUAUGCAUCACGGUGAUACACCGUGAUGAUAGAAGGUACAUGAGGAUCACCCAUGUAGGGC [Mod of Anonveat 16 - Jieux - Exclusion 4] (Eterna round: R97, puzzle: Exclusion 4)”, the “apparent KD of MS2 coat protein” value turned out to be 51.2 nM (input ligand: FMN 200 uM) and 37.8 nM (input ligand: none).

As to “AUAAUGUGAGGAUAUCAGUCGACUAGCUGCGGCUAGUCGACUGAGAAGGUACAUGAGGAUCACCCAUGUAGAUC [E4/20-A3] (Eterna round: R97, puzzle: Exclusion 4)”, the “apparent KD of MS2 coat protein” value runs as follows: (input ligand: FMN 200 uM) 77.9 nM; (input ligand: none) 29.4 nM.

On to “AUAAUGUGAGGAUAUCAGUCGACUAGCUUCGGCUAGUCGACUGAGAAGGUACAUGAGGAUCACCCAUGUAGAUC [E4/20-A1] (Eterna round: R97, puzzle: Exclusion 4)”, for which the “apparent KD of MS2 coat protein” value (input ligand: FMN 200 uM) came to 59.9 nM and the “apparent KD of MS2 coat protein” value (input ligand: none) stood at 40.9 nM.

Consider “AUAAUUUAAGGAUAUACGUGGCGAGCCAGAUAGCUGGGUCUACAUGAGGAUCACCCAUGUAGAAGGUAAGGAUU [Eternabot (L1) Solution 23] (Eterna round: R97, puzzle: Exclusion 2)”, for which the “apparent KD of MS2 coat protein” value by setting is: (input ligand: FMN 200 uM) 17.8 nM; (input ligand: none) 18.6 nM.

On to “AUACUCGUAGGAUAUGGCAAGCUGAACAUGAGGAUCACCCAUGUGUUCUACAGAUCUGGGUUAGAAGGACGUUAUU [Eternabot (L2) Solution 39] (Eterna round: R97, puzzle: Exclusion 5)”, for which the “apparent KD of MS2 coat protein” value amounted to 49.3 nM (input ligand: FMN 200 uM) and 59.7 nM (input ligand: none).

As for “AUACUCUUUGUGAGGAUAUCGUUUUCUUUACGGUUCGAGAAGGCACAUGAGGAUCACCCAUGUUUGACGUGAAU [JR_BMOE4_Sub094] (puzzle: Brourd's mod of Exclusion 4)”, under setting [3], the “apparent KD of MS2 coat protein” value was 21.2 nM.

On to “AUAUAAAUAUAGGAUAUCGAAUUUAUUAAUUAUCGAGAAGGAUAAACAUGAGGAUCACCCAUGUGGUAUCAUGG [Mat - Exclusion 6 - JL Mod - D40] (puzzle: Exclusion 6)”, for which, under setting [3], the “apparent KD of MS2 coat protein” value amounted to 270 nM.

Consider “AUCAGCUCGUCAGGAUAUACAUGAGGAUCACCCAUGUGAUCAAUAGCAGCUUCGGCUGCAUACAUGUAGAAGGGACGAGCUGAU [ENG2/6-B3] (Eterna round: R96, puzzle: Exclusion NG 2)”, for which the “apparent KD of MS2 coat protein” value reads like this: (input ligand: FMN 200 uM) 50 nM; under setting [1], 234 nM; (input ligand: none) 821 nM.

“AUCAGCUCGUGAGGAUAUACAUCACUGCUUCGGCAGUGUAUUAAGAUCACAUGAGGAUCACCCAUGUAGAAGGCACGAGCUGAU [ENG2/2-A3] (Eterna round: R96, puzzle: Exclusion NG 2)”: the “apparent KD of MS2 coat protein” value is, setting by setting: (input ligand: FMN 200 uM) 437 nM; under setting [1], 31.7 nM; (input ligand: none) 38.3 nM.

With “AUCAGCUCGUGAGGAUAUACAUGAGGAUCACCCAUGUGAUCAAUAGCAGCUUCGGCUGCAUUAAUGUAGAAGGUACGAGCUGAU [ENG2/5-C3] (Eterna round: R96, puzzle: Exclusion NG 2)”, the “apparent KD of MS2 coat protein” value by setting is: (input ligand: FMN 200 uM) 114 nM; under setting [1], 216 nM; (input ligand: none) 961 nM.

As to “AUCAGCUCGUGAGGAUAUACAUGAUAGAUCGAUUAAUUAAUUAAUUUAACAUGAGGAUCACCCAUGUAGAAGGUACGAGCUGAU [ENG2/1-C3] (Eterna round: R96, puzzle: Exclusion NG 2)”, the “apparent KD of MS2 coat protein” value under setting [1] was determined as 39.6 nM.

For “AUCAGCUCGUGAGGAUAUAUAUAUACAUGAGGAUCACCCAUGUUAGAUCAGCUUCGGCAGUAUAUAUAGAAGGCACGAGCUGAU [ENG2/15-A2] (Eterna round: R96, puzzle: Exclusion NG 2)”, the “apparent KD of MS2 coat protein” value (input ligand: FMN 200 uM) amounted to 233 nM, the “apparent KD of MS2 coat protein” value under setting [1] was determined as 90.6 nM and the “apparent KD of MS2 coat protein” value (input ligand: none) came out at 79.6 nM.

For the sequence “AUCAGCUCGUGAGGAUAUGCACAUGAGGAUCACCCAUGUAAGAUCAAGCUGCUUCGGCAGCAAGUGCAGAAGGUACGAGCUGAU [ENG2/9-C2] (Eterna round: R96, puzzle: Exclusion NG 2)”, the “apparent KD of MS2 coat protein” value (input ligand: FMN 200 uM) was 206 nM, the “apparent KD of MS2 coat protein” value under setting [1] stood at 128 nM and the “apparent KD of MS2 coat protein” value (input ligand: none) was determined as 234 nM.

On to “AUCCUCACUUUUUAAGCGAACAUGAGGAUCACCCAUGUACAAGCUUUUUGCUCGGCUUAUAAAGGGUUGGAAACAAC [Alacar Attempt 3] (Eterna round: R97, puzzle: Sensor, turn-off variant 1)”, for which the “apparent KD of MS2 coat protein” value was determined as 16.8 nM (input ligand: FMN 200 uM) and 16 nM (input ligand: none).

For “AUCCUCUAGAAGGAUAUGCAGGUUGAAUAAACCGCAGAAGGUUUUACAUGAGGAUCACCCAUGUGUAUAACACA [Eternabot (L2) Solution 100] (Eterna round: R97, puzzle: Exclusion 6)”, the “apparent KD of MS2 coat protein” value by setting is: (input ligand: FMN 200 uM) 230 nM; (input ligand: none) 165 nM.

In the case of “AUCGUGCAGCUUUGCUGUACGAGUACAUGAGGAUCACCCAUGUAGGAUAUGGUACGCUUUGCGUGCUAGAAGGAUAUGUGUUUG [EX ENG3 1.44] (Eterna round: R96, puzzle: Exclusion NG 3)”, the “apparent KD of MS2 coat protein” value by setting is: (input ligand: FMN 200 uM) 58.6 nM; under setting [1], 29.8 nM; (input ligand: none) 43.4 nM.

Turning to “AUCGUGUGAGGAUAUCGAUGUUGGACGUCUAGGUCUGAGCGCGAGAAGGCACAUGAGGAUCACCCAUGUAAGGG [jl-ex4-4.24 ViennaUCT mod] (Eterna round: R97, puzzle: Exclusion 4)”, the “apparent KD of MS2 coat protein” value by setting is: (input ligand: FMN 200 uM) 220 nM; (input ligand: none) 896 nM.

“AUGAGACAUGAGGAUCACCCAUGUGAGGAUAUGUAUGGAUGUUGGAAAGAAUGAGAGAACAGAAGGCACGUAGA [JR_Exclu1_Sub063] (puzzle: Exclusion 1)”: the “apparent KD of MS2 coat protein” value is, setting by setting: under setting [2], 93.1 nM; under setting [3], 104 nM; under setting [4], 149 nM.
